Key:
native gel or EMSA = target: the molecule itself; assay: native gel or EMSA
Cre K201A [1] = target: T1, Cre K201A (P1 phage, UniProt P06956 1-343, K201A); assay: EMSA
CreYin;CreYang [2] = target: T2, CreYin;CreYang (P1 phage;P1 phage, UniProt P06956;P06956 1-343;1-343, D33A;A36V;R192A|R72E;L115D;R119D); assay: EMSA
Cre deltaN (CreΔαN) = Cre deltaN (CreΔαN) (P1 phage, UniProt P06956 1-330); assay: EMSA
CreYang [3] = target: T3, CreYang (P1 phage, UniProt P06956 1-343, R72E;L115D;R119D); assay: EMSA
CreYin [4] = target: T4, CreYin (P1 phage, UniProt P06956 1-343, D33A;A36V;R192A); assay: EMSA
CreYin;CreYang [5] = target: T2, CreYin;CreYang; assay: cryo-EM
Cre K201A [6] = target: T1, Cre K201A; assay: cryo-EM
CreYin [7] = target: T4, CreYin; assay: native MS
CreYang [8] = target: T3, CreYang; assay: native MS
CreYin;CreYang [9] = target: T2, CreYin;CreYang; assay: native MS
CreYin [10] = target: T4, CreYin; assay: cryo-EM

B1: Cre recombinase K201A (cleavage-deficient variant) (enzyme, P1 phage)
chain: MSNLLTVHQNLPALPVDATSDEVRKNLMDMFRDRQAFSEHTWKMLLSVCRSWAAWCKLNNRKWFPAEPEDVRDYLLYLQARGLAVKTIQQHLGQLNMLHRRSGLPRPSDSNAVSLVMRRIRKENVDAGERAKQALAFERTDFDQVRSLMENSDRCQDIRNLAFLGIAYNTLLRIAEIARIRVKDISRTDGGRMLIHIGRTATLVSTAGVEKALSLGVTKLVERWISVSGVADDPNNYLFCRVRKNGVAAPSATSQLSTRALEGIFEATHRLIYGAKDDSGQRYLAWSGHSARVGAARDMARAGVSIPEIMQAGGWTNVNIVMNYIRNLDSETGAMVRLLEDGD
stoichiometry N (native gel or EMSA): 4

B2: loxP-54 (dsDNA)
DNA 1: CGAGTGGCCGATAACTTCGTATAATGTATGCTATACGAAGTTATGCGGCGTGAC
DNA 2: GTCACGCCGCATAACTTCGTATAGCATACATTATACGAAGTTATCGGCCACTCG
binding result (Cre K201A [1]): binds | binding result (CreYin;CreYang [2]): binds | binding result (Cre deltaN (CreΔαN)): binds | binding result (CreYang [3]): binds | binding result (CreYin [4]): binds

B3: loxP-44 (dsDNA)
DNA 1: CGGCGATAACTTCGTATAATGTATGCTATACGAAGTTATGCGGC
DNA 2: GCCGCATAACTTCGTATAGCATACATTATACGAAGTTATCGCCG
binding result (CreYin;CreYang [5]): binds | binding result (Cre K201A [6]): binds

B4: loxP-38 (dsDNA)
DNA 1: CGATAACTTCGTATAATGTATGCTATACGAAGTTATGC
DNA 2: GCATAACTTCGTATAGCATACATTATACGAAGTTATCG
binding result (CreYin [7]): binds | binding result (CreYang [8]): binds | binding result (CreYin;CreYang [9]): binds

GCATAACTTCGTATAGCATATGCGAAGCATATGCTATACGAAGTTATGC (structured_DNA) [loxA hairpin]
binding result (CreYin [10]): binds

Source: paper PMC8860596 (Nucleic Acids Research, 2021)
